Experimental data published in paper doi:10.1101/2022.05.31.494188.

Target: Recombinant envelope glycoprotein gp120 from HIV-1 (CM235) (HIV-1 (CM235))
Experiment: ELISA

Row | Substance | EC50
1 | Aglycosylated Avaren-Fc variant (AvFc^Δgly), N200Q (Fc fusion) | 61 pM
2 | Avaren-Fc produced in glycoengineered ΔXylT/ΔFucT N. benthamiana (AvFc^ΔXF) (Fc fusion) | 48 pM
3 | Avaren-Fc produced in wild-type N. benthamiana (AvFc^WT) (Fc fusion) | 51 pM
